In the DeepSol protein solubility set:

test: soluble on expression in E. coli; label from the status in PepcDB or PDB records

Sequence | soluble on expression in E. coli
GPGSMFQRSLWRFFAHLVREVDTAGFAGDFRRLHHVGAASTQTQAREARHAACNVLFCGHHGTGKLNLLKAIGLQCEKKGQRVAFVSADNQRAARLDGYLINFFIGMRVSRDELPSQEQLEGTLERHVRLVESTFASSFPSLRNIDVLILDALELVQPTVLLSMDAVARRLRGQPRTPFGGLRVYAAADFWRLPVHPTSDTGGYLFQLEQWEVLFPLQTLLRKSHVQKEEELRRLTELAFYGALTLPQMKELEKLSMKEKPESRLFSWSSSTMEAEKSTATATEGEDEEGEIEEEDAMSIAQWTSFPGESAAADLPDGPEGALEATKDDEGAVNDPAAGQTSLSSSSSALALLNDDMASNSFVATRMMLRFPRQPAVKEMPLRYRQLKRTEMGNFLVNMLVHSSSATSVGLVDSLSVDVGSRVHLLLDGQEHYGVPGGAVGEVMQVGPHFLSIHFPREHRTVDIPRMRVVCYHPFYPEIRYELQQFPVFPRKRICPMNILTYPHAFFVNLNGRRMADTNDLGNLLAHQRSFADFTTRNTSDFANLDGMVHEPTRIYYHKISGKPISTAREQWCRNCKQFVPTDSFFEHWATCVHSVRWCIDCNQTVSLELLGPHREKHQVVLCLDCGRPVEWRHWEGHRLSCGPMMREVSTDNQFIPLRTRQLALEMGLDKRDLHTVASITKSSLPKPREGVL | not soluble
MTVGMSGFTRAGEAKAVPLALAERAKTNPMKITLMTGASLGNDLDKTMVEAGMLARRMPFQSDPALRKAINDGRVMFIDQHLSETVEQLRGGQIHGVDIAIVEAVAITAEGGIVPTTSVGNSASFAILADKVIVEINLSQPEVLEGLHDIFIPAKRPTRMPIPVVATDSRVGLPFIPVPPEKIAAIVLSDKSDSFSTVLPPDDETKAIAGHLTEFLLNEVRHGRMTHELQPLQAGIGTIANAVMHGFIDTPFHDLKMYSEVLQDSTFELFDAGKLTFASGSSITLSSAMNEQVMPRLSEYKSRLILRPQEVSNHPEVIRRLGIIGINTALEFDIYGNVNSTHVGGTHMMNGIGGSGDFARNAYMSIFVTKSIAKGGAISSVVPMVSHVDHTEHDVDILVTETGLADLRGLAPRERAAVIIANCVHPSYRDALTDYYQRAAARGGHTPHLIEEALSWHNALRERGTMLPQRLEHHHHHH | not soluble
MSLIREQVVRPLNAMVDASEKIKNRNFDVMLEETSSTEMGILSRTFNSMAGDLGKLYRGLEHAVNEKTNKLQMANQSLQVLYHSSQELTASRITASNFQTILRHWVALEGICALRLEIEEEAGKPLILQEGKPSGAVMLQTPLTLDGHHLGFLYWEAGSPEPDRALIDNFALILSRAIYYNQAQRQAEQLLLMEERATIARELHDSLAQSLSYLKIQLTLLKRSVTPLKSDGDLSKTENIIREIDKGLSDAYTQLRELLTTFRLTLTEGSFGQSLLGMLTQLSGQTDAKIELNNALSSIALDAHQQVHLVQLIREATINAIKHAKATKIKVNCQEQQGRVQVTIEDDGVGFDLQDHKINHYGMSIMQERAARLRGELKVESAPGKGCKVVLTYQQSEEKNKNEEGHHHHHH | soluble
METFTVKMGADSGLLQFEPANVTVHPGDTVKWVNNKLPPHNILFDDKQVPGASKELADKLSHSQLMFSPGESYEITFSSDFPAGTYTYYCAPHRGAGMVGKITVEG | soluble
MKIIFLLFGFIFHPNNAQFDKSGVQQTLDAHNEFRSSIAKGTYVTKGLLHAPATNIMKMKWNVTIATAAQNHANKCPKGHDGPLEGVSGECMWSGHINASKGVNHLGAVAAKAWSSEYTKKGWETDVMSDEFFNSGVGHAIIMTWYSQVNVGCGVKLCQKEGDYQLAIVVCKYWGEGQGNGKIMYESGPTCSACPPNTTCDQATGLCDSKIPDIPEPIYKYDELVNSKPAYTVVMGFFLMIIVQLI | not soluble
MGSDKIHHHHHHMVRKKKEVAQVPSTSKEIKDTLWKSADKLRGSMDASQYKDVALGLVFLKYVSDSFEERQKEIRAELEGKGFDEEYILEDLADVDAYTSENVFWVASNARWDFLKKYSKGMDLEGKHKSIGKLIDEAMQQLMADNESLLGTLPQIYGKDNIDQRRLGELVDLFSSTYFASTKDKKARDLLGEVYEYFLDKFAKAEGKRGGEFYTPQPVVRTLVEILEPTEGRVYDPCCGSGGMFVQAEKFLEVTKRDRSNIAVYGQELNERTWRMAKMNLAIHAISSSGLGERWGDTFARDIHAGTKMDYIMANPPFNIKDWIRNEEDARWKYGVPPAKNANFAWIQHIISKLKDHGEAGVVMANGTMTSQSSGEGEIRKNMVEDDVVSCVIALPAQLFRGTGIPVCVWFFAKDKSAGVGGSVDRRGEVLLIDARQLGHMIDRTERAFSDEDITKIANAFRTWRGRKSAEGEYEDEAGFCKSATIEEIREAGYALTPGRYVGMPEAEEDDEPIDEKIARLTAELTAALDESARLDAVVREQLGRLK | not soluble
MSLRIFLCGCVHGSWEVVVNEVNKLVAKGTKIDLIIVAGDTESFRSKSDLESYNYQRQNHDLGTFHKLVSGELKLPCKMLMIGGNNEVGDMIFQLPFGGWVTPDIFFAGINSQIYFGDLLITCQSGIMNGQDYHKCISEKFPVRGCDTHLILHIREVSIFQLYGLKNVPLFVSHEWPSGIPKQYRNIPRMQFYAKSDDKNDFGCPGFVKLLNKHRPKKWYAAHLHVRFDCTLKNGTKFTGVPKVIDKRYKWYELEEYNCNPAGGFKFSGEWINIVKNTERFVKNPKLLQNLDWDEEWRKIYETMNTEDFPEKVDVMEYNDDYQIQTKKFCDSYQIYNPYKEGHHHHHH | soluble
MGSDKIHHHHHHMTIHKLKEKVASTDFEQHSYAFRRFVLDELRVYIPFAAACFTTIDPESLLSTGTVMDKQLEPIHTLILENEHTGSDYNHYFQLVDSSPHIATLHDATGGNLTASQRYTRILAPAGFHDELRAALIDQGKCWGHLTLFHSKHHSPFSREEQQLVNSLLPAITKKVKRLTFQSTFSPSPNSSHFEAAIMIFSDTFELLSANEAAHSLLSLLREQEQLGEGTFPRPIETLCVKIKATSSSKEEGEIDRWSVCIPAANGQLLTLYASKLTSELLPEQYAVISQNTSPFERLGYSLLYYGLTQREIQIVEQIVNGYTTKQISSHLYISTHTVQDHLKSIFAKMNVNSRRELLSFLNQANK | not soluble
MLEQLPYLALKTPPKTTALLKAECADFIVKEHLGYEMSGDGEFVALYVRKTDCNTLFVGEKLAKFAGVSERNMGYAGLKDRRAVTEQWFCLQMPGMETPDFSQFELDGVEILTVTRHNRKIRTGSLEGNYFDILLRGAEESDELKARLDFVANFGFPNYFTEQRFGRDGHNLTQALRWAQGEIKVKDRKKRSFYLSAARSEIFNLVVAARIEKSTINQVLPNDIVQLAGSHSWFKADEKEDLTALQVRLENQDILLTAPLIGEDILAASEIENEIVNQHSAFDPLMKQERMKAARRPLLMKAKGFSWAFEPEGLRLKFYLPAGSYATALVRELVNYTEE | soluble
MGSDKIHHHHHHMDIRHLRYFVSIVDNDFNLSRASLNLYVSQPALSMMISDFENKEGVQLFKRAQGKIVGLTYVGENYYRDAKEVIKKYNEMHSNLHKSIEQIKGHISIGIPPLILSVVFSEVMPKLILNNPEINFTIKELGAYLLKSDLLLENIDFAVLLNPERISKNIIESYEIHRSELSLFLSPKHHLSAKENITWRDLHGEKIVIFDQTFMIHHQLVESFERHNVYPNIVLKSSSWDFLLYSVKINESLLTILPLPMYEQYKSTEFICRRMEEAIPWSVTLCRLKKNCYTNVEEYIFDSLLKAFKP | not soluble
MSATFSPTAVTDLKDIQDVERLMGRIKEARAAVGEVIFGQEAVVDEVLVTLLAGGHALLIGLPGLAKTKLVQTLGTVVGLRDKRVQFTPDLMPADILGSEVLEEDAAGQRGFRFLPGPVFCQLLMADEINRASPRTQSALLQAMQEHRVSVAGHYHDLPAPFHVLATQNPIEQEGTYPLPEAQLDRFLMQVDVGYPDEAAERRMLAATTGVHQPEARAVMTPAELQAAQALVRRVPVGDSVVDAILSLVRAGRPESSPLPEVRDWVAWGPGPRASQALTLAVRARALLDGRFAPSIEDVIALAHPILRHRMALSFGARADGVTLGRVVDRLIDKIA | soluble
MDVSAYPFFRRDMSWLSFNERVLMEAADRTLPVYDRIKFLSIFSSNLEEFYTVRVAYHQAVLQKRRDRSEAEEDSDADAHILQAIRETVIRQDELYYRIFYDQILPTLEEHGIRLRTHAPTHPDHKAYLRRFFHEEIFPLLYPMLLLPSKVRTFIRSGRVYLAVRLKEKETDEAYSYALLNVPTDGLPRFVELPRLQTDTFYYYSFLEDIIKEHLDVVFPGYEVMDSYSIKVSRDADLLLDAQRPEDLPGEIRKKVKTRKLGAPTRFMYDGRMPDEVLRYICSSCDIDPEEAIRSGNYVNLQDLAMLPNPFAPRLETLTPEPLLSKHLEQAPSLMEGIRRKDYLIHVPYYTYDYVVRLLMEAAISPDVSEIRLTQYRVAENSSIISALEAAAQSGKKVSVFVELKARFDEENNLRLSERMRRSGIRIVYSMPGLKVHAKTALILYHTPAGERPQGIALLSTGNFNETTARIYSDTTLMTANTDIVHDVYRLFRILDGDPEPARFSRLLVARYNMGEAITNLIEREIENVKRGKRGYMLLKMNGLQDKNVITQLYRASEAGVEIDLIVRGICCLVPDMPQSRNIRVTRLVDMYLEHSRIWCFHNGGKEEVFISSADWMKRNLYNRIETACPVLDPALRREIIDILEIQLRDNIKACRIDSSLNNIYKHNSDEKPVRAQAAIYRYLKGKEEATPAAK | not soluble
MAHHHHHHMRSTPHGPPPHPRTSSVRQDAITYPYAYAAPGRQAPSAGYEHDDNTTAEAGPTRRCVPGRGNRAMPASNTGPYPSDVNRTLSYPEPAPARTAAPAVAIMQPSSPFEQDHTPVVYTVQNTTTDTHRHETEYGGVLTIRTTTVTRTITERLVASDEDDDSSENGEVYLDDARNEASVPSLHR | not soluble
ARKIGIIGLGNVGAAVAHGLIAQGVADDYVFIDANEAKVKADQIDFQDAMANLEAHGNIVINDWAALADADVVISTLGNIKLQQDNPTGDRFAELKFTSSMVQSVGTNLKESGFHGVLVVISNPVDVITALFQHVTGFPAHKVIGTGTLLDTARMQRAVGEAFDLDPRSVSGYNLGEHGNSQFVAWSTVRVMGQPIVTLADAGDIDLAAIEEEARKGGFTVLNGKGYTSYGVATSAIRIAKAVMADAHAELVVSNRRDDMGMYLSYPAIIGRDGVLAETTLDLTTDEQEKLLQSRDYIQQRFDEIVDTL | soluble
MGSDKIHHHHHHMECSGLYPRRNRSSHNQSEFQVSFMATELSALPANHPRVTFGKVGVLLVNLGTPDGTDYWPMRRYLAEFLSDKRVIEWSRLYWYPILYGIVLNKRPQKVGKAYEEIWNHERNESYLRTYTRSQGELMAAALKDFPNVVVDWAMRYGQPSIASRIDALKEQGCEKILLFPLYPQYAASTTATVNDKAFEHLMKLRWQPAIRTVPPYHDDPAYIEGLAASVKNHLATLDWEPEMLITSFHGIPQSYFKKGDPYYCHCQKTARLLREALGRTEKNFMITFQSRFGPEEWLQPYTDKTVEKLASEGIKRIAVMNPGFVSDCLETLEEIAGEAGEIFLHNGGEKFTHIPCLNDSTEGMNVLEKVVRRELQGWV | not soluble
MGSDKIHHHHHHMTDCADAQGLIAKITGVCFNHQLNIIKNSEFVDNAQGRFFMRTELEGHFHCEQLLQDLRQVLPAQNHMTLVSAGKKRIVILVTKEAHCLGDLLMKAYYGGLNVEIAAVVGNHDVLRELVEKFDIPFHLVSHEGLDRIQHEQALLAAVSQYSPDYLVLAKYMRVLTPDFVAEYPNRILNIHHSFLPAFIGAAPYRQAWERGVKIIGATAHFVNNCLDEGPIIKQDVIPVDHSYSALEMAKAGRDVEKSVLSKALQLVLNEQVVVYGNKTIVF | not soluble
MDMDKRSSDLEAALRIVLQQTLNIVLQAQEKLPEANVVPSTPPTSPSTDIGEQMASFWNIPSPNPPATSATSSTSPEEEIPCICFNCWGNVAAAANSKTWKSPNQADFRSAAAPLTEEKSHA | not soluble
